Target: Ramos (human) (UniProt P11836)
Test: FACS binding; Ramos cells

Ramos (human), sequence (P11836 whole entry): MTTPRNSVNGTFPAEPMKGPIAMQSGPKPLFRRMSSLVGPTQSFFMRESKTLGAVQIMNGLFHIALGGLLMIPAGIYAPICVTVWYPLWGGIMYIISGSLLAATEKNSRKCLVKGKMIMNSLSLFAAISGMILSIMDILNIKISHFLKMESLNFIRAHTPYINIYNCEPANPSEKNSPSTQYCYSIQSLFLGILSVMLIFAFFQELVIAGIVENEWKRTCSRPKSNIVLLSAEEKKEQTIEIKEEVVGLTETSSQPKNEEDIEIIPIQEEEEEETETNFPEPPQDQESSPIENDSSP

| EC50 | Substance |
| --- | --- |
| 1.54 µg/mL | Rituxan-GlcNAc |
| 1.2 µg/mL | Rituxan-SCT |

Source: patent US20160280794A1
